The target of experiment [1] is T1, mouse GPVI on the cell surface of mouse platelets (mouse, UniProt P0C191 22-313).
T1 construct: whole, on cells; also called GPVI on murine platelets
T1 sequence (looked up): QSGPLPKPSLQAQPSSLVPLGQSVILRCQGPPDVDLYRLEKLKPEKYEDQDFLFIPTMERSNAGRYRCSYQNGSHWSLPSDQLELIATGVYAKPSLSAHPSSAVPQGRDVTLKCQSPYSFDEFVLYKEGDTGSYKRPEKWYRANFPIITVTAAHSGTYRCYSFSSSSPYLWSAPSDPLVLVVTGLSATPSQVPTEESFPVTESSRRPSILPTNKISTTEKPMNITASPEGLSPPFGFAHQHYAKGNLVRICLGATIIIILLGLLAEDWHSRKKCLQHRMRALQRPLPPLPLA
Description: FACS on washed murine platelets from PRP (one exemplary donor), PE-conjugated detection antibody, median fluorescence. On the procedure: (§1) Platelet-rich plasma (PRP) from up to 4 donors was prepared by centrifugation of citrated whole blood for 15 min at 150×g without brake. The resulting supernatant was transferred as PRP into a new sample tube without disturbing the underlying leukocyte-rich interphase. After careful washing in Tyrode's buffer supplemented with Prostacyclin 1₂ (PGI2; Epoprostenol-Rotexmedica), platelets were resuspended in Tyrode's/PGI2 and transferred to 96 well V-bottom microtiter plates. Platelets were spiked with Fab (comprising a modified heavy chain constant region) diluted to final concentrations between 0.015-30 μg/ml in Tyrode's/PGI2 and incubated for 30 min at RT. Platelets were carefully washed to remove non-bound Fab and then incubated for 30 min at RT with a Phycoerythrine (PE)-conjugated detection antibody (Jackson ImmunoResearch). After incubation for 30 min at RT, platelets were analyzed by flow cytometry in a FACS Canto II (Becton Dickinson). In the case of Fab directly conjugated with PE (FIG. 1D), incubation with detection antibody was omitted. Data was evaluated using FACS Diva software (Becton Dickinson). EC50 values were calculated using Prism 5 software (GraphPad).

Experiment [2] concerns the target T2, rat GPVI extracellular domain fused at its C-terminus to human IgG1 Fc (GPVI-Fc) (rat; human).
T2 construct: also called rGPVI
Description: ELISA, coated GPVI-Fc, Fab titrated. On the procedure:
(§2) 0.5-2 nM of recombinant GPVI-Fc-fusion proteins (as described in Example 1) were coated overnight on Maxisorp microtiter plates at 4° C. […] Following washing with PBST, Fabs (comprising a modified heavy chain constant region) serially diluted to concentrations in the range of 600 nM to 1 pM in PBST with 5% skim milk powder (MPBST) were added for 1 h at RT. Plates were washed with PBST. Bound Fab was detected using an alkaline phosphatase-conjugated detection antibody (Jackson Immuno Research) diluted in MPBST and directed against human F(ab′)2 fragment. After washing with TBS supplemented with 0.05% Tween-20 (TBST), AttoPhos substrate (Roche) diluted in ddH2O was added and fluorescence intensity measured at a Tecan Infinite 200Pro reader. EC50 values were calculated using Prism 5 software (GraphPad).
In general terms: An ELISA detects its analyte on a solid surface through an enzyme-linked reagent.

The target of experiment [3] is T3, human GPVI-1A extracellular domain fused at its C-terminus to human IgG1 Fc (GPVI-Fc) (human).
T3 construct: also called hGPVI-1a; hGPVI
Description: ELISA, coated GPVI-Fc, Fab titrated. On the procedure: as §2

Experiment [4] has as its target T4, human GPVI-1B extracellular domain fused at its C-terminus to human IgG1 Fc (GPVI-Fc) (human).
T4 construct: Low frequency haplotype 'b'; also called hGPVI-lb; hGPVI-1b
Description: ELISA, coated GPVI-Fc, Fab titrated. On the procedure: as §2

Experiment [5] deals with T5, mouse GPVI extracellular domain fused at its C-terminus to human IgG1 Fc (GPVI-Fc) (mouse; human).
T5 construct: also called mGPVI; mouse GPVI-Fc
Description: ELISA, coated GPVI-Fc, Fab titrated. On the procedure:
as §2

Experiment [6] concerns the target T6, human GPVI-2A extracellular domain fused at its C-terminus to human IgG1 Fc (GPVI-Fc) (human).
T6 construct: Isoform 2, haplotype 'a'; also called hGPVI-2a
The experiment can be described thus: ELISA, coated GPVI-Fc, Fab titrated. On the procedure: as §2

Experiment [7] deals with T7, cynomolgus monkey GPVI extracellular domain fused at its C-terminus to human IgG1 Fc (GPVI-Fc) (cynomolgus monkey; human).
T7 construct: also called cyGPVI-2; cyGPVI
Description: ELISA, coated GPVI-Fc, Fab titrated. How it is done: as §2

The target in experiment [8] is T8, cynomolgus monkey GPVI on the cell surface of cynomolgus monkey platelets (cynomolgus monkey).
T8 construct: whole, on cells; also called GPVI on cynomolgus monkey platelets
The experiment can be described thus: FACS on washed cynomolgus platelets from PRP (one donor), PE-conjugated detection antibody, median fluorescence. On the procedure: as §1

The target in experiment [9] is T5, mouse GPVI extracellular domain fused …. Description: Competition ELISA (MSD): mouse GPVI-Fc preincubated with Fab, then on coated VitroCol (competitor). On the procedure:
1 or 10 μg/ml of recombinant GPVI collagen substrate (crosslinked collagen-related peptide (CRP-XL (Anaspec, Inc.), rat-tail collagen (Enzo Life Sciences) or VitroCol (Advanced BioMatrix, Inc.) was coated on a MSD-plate over night at 4° C., washed with PBST, blocked for 1 h at RT with PBS supplemented with 0.05% Tween-20 and 3% skim milk powder, and subsequently washed again with PBST. Purified recombinant GPVI antigens (human, cynomolgus monkey or mouse GPVI as prepared in Example 1) diluted in PBS and varying concentrations of Fab (comprising a modified heavy chain constant region) diluted in PBS (final concentration range 200-0.3 μg/ml) were incubated in a polypropylene plate for 30 min at RT. Fab/GPVI-Fc mixture was added to coated collagen substrate for 1 h at RT. After washing with PBST, bound GPVI form different species was detected using an ECL-conjugated detection antibody directed against human Fc (Jackson Immuno Research) for 1 h at RT. MSD read buffer (Meso Scale Discovery) was added prior to readout in a Sector Imager6000 (Meso Scale Discovery).

Consider 5 molecules from US20210214435A1 (MorphoSys, published 2021).

T7 sequence (chain, as listed by the source limits assumed): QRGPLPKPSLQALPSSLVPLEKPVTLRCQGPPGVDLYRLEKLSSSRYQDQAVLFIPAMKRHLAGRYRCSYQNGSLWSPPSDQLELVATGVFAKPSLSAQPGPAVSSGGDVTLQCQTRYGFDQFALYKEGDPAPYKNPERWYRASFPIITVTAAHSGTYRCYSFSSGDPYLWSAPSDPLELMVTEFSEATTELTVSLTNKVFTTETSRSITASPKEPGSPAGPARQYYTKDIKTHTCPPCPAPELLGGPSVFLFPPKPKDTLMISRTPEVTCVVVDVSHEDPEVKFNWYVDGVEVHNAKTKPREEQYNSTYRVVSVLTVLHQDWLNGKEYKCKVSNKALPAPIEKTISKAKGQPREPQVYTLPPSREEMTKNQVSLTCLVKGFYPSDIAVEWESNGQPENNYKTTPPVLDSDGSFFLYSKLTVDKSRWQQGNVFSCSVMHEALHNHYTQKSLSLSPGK
T5 sequence (chain, as listed by the source limits assumed): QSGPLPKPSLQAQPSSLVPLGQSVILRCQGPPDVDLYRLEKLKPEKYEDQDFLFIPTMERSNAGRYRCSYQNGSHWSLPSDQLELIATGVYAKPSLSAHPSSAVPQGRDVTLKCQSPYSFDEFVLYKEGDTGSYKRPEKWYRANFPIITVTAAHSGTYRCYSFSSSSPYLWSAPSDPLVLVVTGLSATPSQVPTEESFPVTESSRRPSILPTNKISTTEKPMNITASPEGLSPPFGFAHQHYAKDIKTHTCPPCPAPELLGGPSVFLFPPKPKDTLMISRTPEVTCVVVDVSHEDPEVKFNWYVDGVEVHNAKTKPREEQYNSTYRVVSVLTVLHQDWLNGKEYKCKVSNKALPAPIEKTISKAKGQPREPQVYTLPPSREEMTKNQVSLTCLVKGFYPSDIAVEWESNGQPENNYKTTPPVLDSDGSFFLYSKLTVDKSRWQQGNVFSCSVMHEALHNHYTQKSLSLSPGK
T4 sequence (chain, as listed by the source limits assumed): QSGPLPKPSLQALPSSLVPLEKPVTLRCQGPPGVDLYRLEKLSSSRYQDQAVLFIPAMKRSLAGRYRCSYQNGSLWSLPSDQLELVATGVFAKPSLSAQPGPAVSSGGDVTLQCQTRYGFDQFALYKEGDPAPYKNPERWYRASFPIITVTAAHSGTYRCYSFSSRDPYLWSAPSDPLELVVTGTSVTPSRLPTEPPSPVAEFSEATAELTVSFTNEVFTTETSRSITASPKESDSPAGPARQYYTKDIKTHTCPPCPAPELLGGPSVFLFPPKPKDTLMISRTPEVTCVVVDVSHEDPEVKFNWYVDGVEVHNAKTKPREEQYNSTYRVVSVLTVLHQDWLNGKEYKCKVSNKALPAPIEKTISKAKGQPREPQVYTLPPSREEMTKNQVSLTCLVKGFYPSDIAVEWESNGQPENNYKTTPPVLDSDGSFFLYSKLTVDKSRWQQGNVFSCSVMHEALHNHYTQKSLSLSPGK
T3 sequence (chain, as listed by the source limits assumed): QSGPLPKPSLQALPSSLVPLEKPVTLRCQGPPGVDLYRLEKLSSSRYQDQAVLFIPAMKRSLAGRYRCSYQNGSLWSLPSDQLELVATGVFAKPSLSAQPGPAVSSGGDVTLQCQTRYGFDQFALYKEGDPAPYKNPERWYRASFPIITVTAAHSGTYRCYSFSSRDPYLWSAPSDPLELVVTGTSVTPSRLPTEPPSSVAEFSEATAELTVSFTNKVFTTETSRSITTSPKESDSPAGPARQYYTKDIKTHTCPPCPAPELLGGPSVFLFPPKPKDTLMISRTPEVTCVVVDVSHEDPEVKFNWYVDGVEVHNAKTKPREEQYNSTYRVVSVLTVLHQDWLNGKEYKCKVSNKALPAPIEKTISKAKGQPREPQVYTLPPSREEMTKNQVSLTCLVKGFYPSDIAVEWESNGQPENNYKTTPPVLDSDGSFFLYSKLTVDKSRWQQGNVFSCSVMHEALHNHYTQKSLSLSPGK
T2 sequence (chain, as listed by the source limits assumed): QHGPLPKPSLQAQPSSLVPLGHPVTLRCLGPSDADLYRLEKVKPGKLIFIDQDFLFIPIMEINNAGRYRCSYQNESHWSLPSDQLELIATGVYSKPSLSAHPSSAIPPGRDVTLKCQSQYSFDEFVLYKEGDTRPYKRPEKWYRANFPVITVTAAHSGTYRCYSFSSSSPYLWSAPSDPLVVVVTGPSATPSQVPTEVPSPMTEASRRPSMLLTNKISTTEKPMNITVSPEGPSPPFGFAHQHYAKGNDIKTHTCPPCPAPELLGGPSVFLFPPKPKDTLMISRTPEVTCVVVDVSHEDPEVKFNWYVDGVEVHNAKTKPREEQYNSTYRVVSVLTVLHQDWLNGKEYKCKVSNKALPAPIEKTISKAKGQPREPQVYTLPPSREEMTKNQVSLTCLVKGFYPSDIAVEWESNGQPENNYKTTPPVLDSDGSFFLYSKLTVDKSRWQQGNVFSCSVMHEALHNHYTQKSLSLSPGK
T6 sequence (chain, as listed by the source limits assumed): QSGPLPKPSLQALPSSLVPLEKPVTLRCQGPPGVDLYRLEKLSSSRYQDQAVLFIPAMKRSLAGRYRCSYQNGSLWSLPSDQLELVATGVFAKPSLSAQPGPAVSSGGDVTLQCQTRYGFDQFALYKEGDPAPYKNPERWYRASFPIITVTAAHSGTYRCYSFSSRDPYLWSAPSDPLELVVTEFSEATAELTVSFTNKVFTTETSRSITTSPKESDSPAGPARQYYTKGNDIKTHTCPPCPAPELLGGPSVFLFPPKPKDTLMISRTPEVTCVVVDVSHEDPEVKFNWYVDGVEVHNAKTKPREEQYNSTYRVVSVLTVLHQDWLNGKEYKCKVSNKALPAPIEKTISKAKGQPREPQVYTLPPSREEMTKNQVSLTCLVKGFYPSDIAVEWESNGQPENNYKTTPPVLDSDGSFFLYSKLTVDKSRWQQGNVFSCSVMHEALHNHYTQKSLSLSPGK

B1: Fab #2 comprising a modified heavy chain constant region (Fab, V domains shown)
VH: QVQLVESGGGLVKPGGSLRLSCAASGFSFSDHYMSWIRQAPGKGLEWVSSVGSEGKFIDYAASVKGRFTISRDNAKNSLYLQMNSLRAEDTAVYYCARHYREFRWHYYYFDYWGQGTLVTVSS
VL: QSVLTQPPSVSGAPGQRVTISCTGSSSNIGAGYDVHWYQQLPGTAPKLLIYGNSNRPSGVPDRFSGSKSGTSASLAITGLQAEDEADYYCQSHDLGAHVWVFGGGTKLTVLG
notes: Human Fab from the Ylanthia library; produced in HKB11 cells; also called Fab #2 mod; HC
By EC50 (read off the curve) is commonly meant the midpoint of the concentration-response curve. A word on the EC50: it is the concentration giving half of the maximal effect. A word on the IC50: it is the concentration at which inhibition is half-maximal. Regarding B1, the concentration for a half-maximal effect (EC50 (read off the curve)) in [1] was roughly 0.5 µg/mL; in experiment [8], roughly 0.6 µg/mL. Further, the concentration for a half-maximal effect (EC50) was determined as 53.1 nM in experiment [2]; 0.41 nM in experiment [3]; 0.45 nM in experiment [4]; 6.55 nM in experiment [5]; 0.65 nM in experiment [6]; 0.42 nM in [7]. This molecule displayed an IC50 in [9] of 4.3 nM. Besides, in [9], the “Max. inhibition at 200 nM Fab [%]” value was found to be 99%.

B2: Fab #3 comprising a modified heavy chain constant region (Fab, V domains shown)
VH: QVQLVESGGGLVKPGGSLRLSCAASGFSFGDYYVSWIRQAPGKGLEWVSAIGGSGSAVQYAESVKGRFTISRDNAKNSLYLQMNSLRAEDTAVYYCARHYREFRWHYYYFDYWGQGTLVTVSS
VL: B1 VL
notes: Human Fab from the Ylanthia library; produced in HKB11 cells; also called Fab #3 mod; HC
In the case of B2, the results for the “EC50 (read off the curve)” value in experiment [1] and in [8] were roughly 0.3 µg/mL and roughly 0.6 µg/mL, respectively. Also, the EC50 worked out at 9.65 nM in [2]; 0.35 nM in experiment [3]; 0.39 nM in experiment [4]; 1.36 nM in experiment [5]; 0.48 nM in experiment [6]; 0.37 nM in experiment [7]. Moreover, the IC50 in [9] amounted to 3.3 nM. For the same molecule, in [9], the “Max. inhibition at 200 nM Fab [%]” value turned out to be 100%.

B3: Fab #4 comprising a modified heavy chain constant region (Fab, V domains shown)
VH: QVQLVQSGAEVKKPGASVKVSCKASGGAFTSSYMHWVRQAPGQGLEWMGIIEPTGASTLYAQRFQGRVTMTRDTSTSTVYMELSSLRSEDTAVYYCARTGIALPLGFDLWGQGTLVTVSS
VL: QSVLTQPPSVSAAPGQKVTISCSGSSSNIGNNYVSWYQQLPGTAPKLLIYDNNKRPSGIPDRFSGSKSGTSATLGITGLQTEDEADYYCAAWSTRFRWVFGGGTKLTVLG
notes: Human Fab from the Ylanthia library; produced in HKB11 cells; also called Fab #4 mod; HC
Turning to B3, the “EC50 (read off the curve)” value is roughly 0.2 µg/mL in experiment [1] and roughly 0.7 µg/mL in [8]. Besides, the concentration giving a half-maximal response (EC50) in [2] was 9.32 nM; in experiment [3], 0.41 nM; in [4], 0.48 nM; in experiment [5] it was 1 nM; in [6], 0.74 nM; in [7] it was 0.5 nM. In addition, in experiment [9], the IC50 was found to be 6.7 nM. Besides, the “Max. inhibition at 200 nM Fab [%]” value in experiment [9] is 94%.

B4: Fab #1 comprising a modified heavy chain constant region (Fab, V domains shown)
VH: QVQLVQSGAEVKKPGASVKVSCKASGYTFTSHYMHWVRQAPGQGLEWMGLIEPSEGETEYAQRFQGRVTMTRDTSTSTVYMELSSLRSEDTAVYYCARDSSRSYPLGFDIWGQGTLVTVSS
VL: QSVLTQPPSVSAAPGQKVTISCSGSSSNIGNNYVSWYQQLPGTAPKLLIYDNNKRPSGIPDRFSGSKSGTSATLGITGLQTEDEADYYCAAWDFRSSRWVFGGGTKLTVLG
notes: Human Fab from the Ylanthia library; produced in HKB11 cells; also called Fab #1 mod; HC
Regarding B4, the half-maximal effective concentration (EC50 (read off the curve)) in [1] is roughly 3 µg/mL; in [8], roughly 0.4 µg/mL. Further, the binding result in experiment [2] is given as “binds”. Besides, the EC50 in [3] worked out at 0.46 nM; in [4], 0.66 nM; in [6] it was 0.93 nM; in [7], 0.53 nM. This molecule also gave an IC50 in experiment [9] of 9.1 nM. The “Max. inhibition at 200 nM Fab [%]” value in experiment [9] was 96%.

B5: Reference Control Antibody RefFab #1 (humanized GPVI antibody of WO2011073954A2, SANOFI) (Fab, V domains shown)
VH: EVQLLESGPGLVAPSGSLSITCTVSGFSLTGYGVNWVRQPPGKGLEWLGMIWGDGSTDYQSTLKSRLSISKDNSKSQVFLKMNSLRTDDTARYYCARDLPMDYWGLGTSVTVSS
VL: DIQMTQSPSSLSASVGGRVTITCKASQDINKYIAWYQHKPGKGPSLLIHYTSTLQPGVPSRFSGSGSGRDYSFSISNLQPEDIATYYCLQYANLLTFGGGTKLEIKR
notes: Cloned into mammalian Fab expression vectors; a glycine-serine linker (G4S)2 was added to the C-terminus of the Fab heavy chain
Consider B5, for which the 50% effective concentration (EC50) in [3] is 0.93 nM; in [4], 1 nM; in experiment [6] it was 1.43 nM; in experiment [7], 0.58 nM. Besides, the concentration for a half-maximal effect (EC50 (read off the curve)) in experiment [8] is roughly 0.5 µg/mL.
